For assay [1], the target named is gp41 subunit of ADA.CM.v4 Env (CTD truncated by 102 amino acids) (HIV-1 (subtype B isolate ADA)). Briefly: cryo-EM structure.
Assay [2] addresses immature Gag polyprotein (pr55 Gag precursor) (HIV-1). Nature of the assay: cryo-EM structure.

Regarding “gp41 subunit of ADA.CM.v4 Env (CTD truncated by 102 amino acids) (domain or fragment)”, in assay [1], the stoichiometry N was found to be 3.

Substance “immature Gag polyprotein (pr55 Gag precursor) (natural protein)” had a stoichiometry N in assay [2] of 6.

One may read the stoichiometry N as the number of molecules, sites or subunits per partner or assembly.

The record behind these values is doi:10.1101/2021.08.31.458345.
